Assay results reported in US20140294819A1 (NVIP, published 2014).

Key:
[1] = molecular target: T1, canine CD20 cyclic (oxidised, disulphide-bonded) peptide SEQ ID NO:2 (canine, disulphide bond between the two cysteine residues (corresponding to positions 167 and 183); N-terminal biotin in the streptavidin-plate assays); assay: ELISA, hybridoma antibody on cyclic CD20 peptide
T1 construct: Chemically synthesised and oxidised; also called C20; caCD20 peptide
T1 peptide: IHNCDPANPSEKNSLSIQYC
From the text: (§1) Using a combination of cyclic human (SEQ ID NO:3) and canine (SEQ ID NO:2) CD20 peptides, monoclonal antibodies that would bind both human and canine peptides were screened for using conventional hybridoma screening of mice previously immunised with the cyclic canine CD20 peptide of FIG. 1, coupled to diphtheria toxoid at the amino terminus as a source of T-cell help. Two antibody hybridomas were selected, RA2 and RF2 and tested for binding to these as well as to murine (SEQ ID NO:6) and feline (SEQ ID NO:4) CD20 peptides. RA2 and RF2 bound strongly to canine CD20 and RF2 bound strongly to human CD20 peptide whereas RA2 binds more weakly. Unexpectedly RA2 and RF2 bound strongly to feline and also murine CD20 peptides.

[2] = molecular target: T2, feline CD20 cyclised peptide SEQ ID NO:4 (feline, cyclised by a disulphide bond between the two cysteine residues); assay: ELISA, hybridoma antibody on cyclic CD20 peptide
T2 construct: also called feline CD20 peptide
T2 peptide: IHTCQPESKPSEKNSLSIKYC
From the text: as §1

[3] = molecular target: T3, murine CD20 cyclic (oxidised) peptide SEQ ID NO:6 (murine, disulphide bond between the two cysteine residues; biotinylated); assay: ELISA, hybridoma antibody on cyclic CD20 peptide
T3 construct: also called M20; mouse CD20 peptide
T3 peptide: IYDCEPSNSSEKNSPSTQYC
From the text: as §1

[4] = molecular target: T4, human CD20 cyclic (oxidised) peptide SEQ ID NO:3 (human, disulphide bond between the two cysteine residues; biotinylated); assay: ELISA, hybridoma antibody on cyclic CD20 peptide
T4 construct: also called H20; human CD20 cyclic peptide
T4 peptide: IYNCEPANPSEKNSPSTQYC
From the text: as §1

[5] = molecular target: T1, canine CD20 cyclic (oxidised, …); assay: ELISA, purified antibody on cyclic CD20 peptide
Description: (§2) The purified antibodies shown in FIG. 15 were tested for binding to cyclic CD20 peptides from different species by ELISA as above.

[6] = molecular target: T2, feline CD20 cyclised peptide SEQ ID NO:4; assay: ELISA, purified antibody on cyclic CD20 peptide
Description: as §2

[7] = molecular target: T3, murine CD20 cyclic (oxidised) peptide …; assay: ELISA, purified antibody on cyclic CD20 peptide
Description: as §2

[8] = molecular target: T4, human CD20 cyclic (oxidised) peptide …; assay: ELISA, purified antibody on cyclic CD20 peptide
Description: as §2

[9] = molecular target: T2, feline CD20 cyclised peptide SEQ ID NO:4; assay: ELISA on cyclised CD20 peptide
[10] = molecular target: T3, murine CD20 cyclic (oxidised) peptide …; assay: ELISA on cyclised CD20 peptide
[11] = molecular target: T4, human CD20 cyclic (oxidised) peptide …; assay: ELISA on cyclised CD20 peptide

Measured: binding result

B1: RA2 murine monoclonal antibody (hybridoma) (antibody, V domains shown)
VH: QVQLKQSGPGLVPPSQSLSITCTVSGFSLTNYGVHWVRQSPGKGLEWLGVIWSGGTTDYNAAFISRLSISKDNSKSQVFFKMNSLQADDTAIYYCARGPRKFYYYGMDYWGQGTSVTVSS
VL: DVLMTQTPLSLPVSLGDQASISCRSSQSIVHSNGNTYLEWYLQKPGQSPKLLIYKVSNRFSGVPDRFSGSGSGTDFTLKISRVEAGDLGVYYCFQGLHVPLTFGAGTRLELK
notes: Hybridoma supernatant; also called muRA2
binds: [1] | [2] | [3] | [4]

B2: RF2 murine monoclonal antibody (hybridoma) (antibody, V domains shown)
VH: QVQLKQSGPGLVPPSQSLSITCTISGFSLTSYGVHWVRQSPGWGLEWLGVIWSGGSIDYNAAFISRLSISKDNSKSQVFIKMNSLQADDTAIYYCARGPRKFYYFGMDYWGQGTSVTVSS
VL: DVVMTQTPLSLPVSLGDQASISCRSSQNIVHSNGNTYVEWYLQKPGQSPKLLIYKVSNRFSGVPDRFSGSGSGTDFTLKISRVEAEDLGVYYCFQGSHVPLTFGAGTKLELK
notes: Hybridoma supernatant; also called muRF2
binds: [1] | [2] | [3] | [4]

B3: chimeric mouse-canine RF2, HCB isotype (antibody)
heavy: QVQLKQSGPGLVPPSQSLSITCTISGFSLTSYGVHWVRQSPGWGLEWLGVIWSGGSIDYNAAFISRLSISKDNSKSQVFIKMNSLQADDTAIYYCARGPRKFYYFGMDYWGQGTSVTVSSASTTAPSVFPLAPSCGSTSGSTVALACLVSGYFPEPVTVSWNSGSLTSGVHTFPSVLQSSGLYSLSSMVTVPSSRWPSETFTCNVAHPASKTKVDKPVPKRENGRVPRPPDCPKCPAPEMLGGPSVFIFPPKPKDTLLIARTPEVTCVVVDLDPEDPEVQISWFVDGKQMQTAKTQPREEQFNGTYRVVSVLPIGHQDWLKGKQFTCKVNNKALPSPIERTISKARGQAHQPSVYVLPPSREELSKNTVSLTCLIKDFFPPDIDVEWQSNGQQEPESKYRTTPPQLDEDGSYFLYSKLSVDKSRWQRGDTFICAVMHEALHNHYTQESLSHSPGK
light: DVVMTQTPLSLPVSLGDQASISCRSSQNIVHSNGNTYVEWYLQKPGQSPKLLIYKVSNRFSGVPDRFSGSGSGTDFTLKISRVEAEDLGVYYCFQGSHVPLTFGAGTKLELKRNDAQPAVYLFQPSPDQLHTGSASVVCLLNSFYPKDINVKWKVDGVIQDTGIQESVTEQDKDSTYSLSSTLTMSSTEYLSHELYSCEITHKSLPSTLIKSFQRSECQRVD
notes: also called chiRF2-B; chimeric RF2
binds: [5] | [6] | [7] | [8]

B4: caninised RA2, HCB isotype (antibody)
heavy: EVQLVQSGGGLVKPTESLTISCVVSGFSLTNYGVHWVRQSPGKGLEWLGVIWSGGTTDYNAAFISRLSISKDNSKSTVFLRMNSLRADDTAIYYCARGPRKFYYYGMDYWGQGTSVTVSSASTTAPSVFPLAPSCGSTSGSTVALACLVSGYFPEPVTVSWNSGSLTSGVHTFPSVLQSSGLYSLSSMVTVPSSRWPSETFTCNVAHPASKTKVDKPVPKRENGRVPRPPDCPKCPAPEMLGGPSVFIFPPKPKDTLLIARTPEVTCVVVDLDPEDPEVQISWFVDGKQMQTAKTQPREEQFNGTYRVVSVLPIGHQDWLKGKQFTCKVNNKALPSPIERTISKARGQAHQPSVYVLPPSREELSKNTVSLTCLIKDFFPPDIDVEWQSNGQQEPESKYRTTPPQLDEDGSYFLYSKLSVDKSRWQRGDTFICAVMHEALHNHYTQESLSHSPGK
light: DIVMTQTPLSLSVSQEEEASISCRSSQSIVHSNGNTYLEWYLQKPGQSPKLLIYKVSNRFSGVPDRFSGSGSGTDFTLKISRVEAGDAGVYYCFQGLHVPLTFGAGTKLELKRNDAQPAVYLFQPSPDQLHTGSASVVCLLNSFYPKDINVKWKVDGVIQDTGIQESVTEQDKDSTYSLSSTLTMSSTEYLSHELYSCEITHKSLPSTLIKSFQRSECQRVD
notes: also called caRA2-B
binds: [5] | [6] | [7] | [8]

B5: caninised RA2, HCC isotype (antibody)
heavy: EVQLVQSGGGLVKPTESLTISCVVSGFSLTNYGVHWVRQSPGKGLEWLGVIWSGGTTDYNAAFISRLSISKDNSKSTVFLRMNSLRADDTAIYYCARGPRKFYYYGMDYWGQGTSVTVSSASTTAPSVFPLAPSCGSQSGSTVALACLVSGYIPEPVTVSWNSVSLTSGVHTFPSVLQSSGLYSLSSMVTVPSSRWPSETFTCNVAHPATNTKVDKPVAKECECKCNCNNCPCPGCGLLGGPSVFIFPPKPKDILVTARTPTVTCVVVDLDPENPEVQISWFVDSKQVQTANTQPREEQSNGTYRVVSVLPIGHQDWLSGKQFKCKVNNKALPSPIEEIISKTPGQAHQPNVYVLPPSRDEMSKNTVTLTCLVKDFFPPEIDVEWQSNGQQEPESKYRMTPPQLDEDGSYFLYSKLSVDKSRWQRGDTFICAVMHEALHNHYTQISLSHSPGK
light: DIVMTQTPLSLSVSQEEEASISCRSSQSIVHSNGNTYLEWYLQKPGQSPKLLIYKVSNRFSGVPDRFSGSGSGTDFTLKISRVEAGDAGVYYCFQGLHVPLTFGAGTKLELKRNDAQPAVYLFQPSPDQLHTGSASVVCLLNSFYPKDINVKWKVDGVIQDTGIQESVTEQDKDSTYSLSSTLTMSSTEYLSHELYSCEITHKSLPSTLIKSFQRSECQRVD
notes: See note of m19; also called caRA2-C
binds: [5] | [6] | [7] | [8]

B6: chimeric mouse-canine RA2, HCB isotype (antibody)
heavy: QVQLKQSGPGLVPPSQSLSITCTVSGFSLTNYGVHWVRQSPGKGLEWLGVIWSGGTTDYNAAFISRLSISKDNSKSQVFFKMNSLQADDTAIYYCARGPRKFYYYGMDYWGQGTSVTVSSASTTAPSVFPLAPSCGSTSGSTVALACLVSGYFPEPVTVSWNSGSLTSGVHTFPSVLQSSGLYSLSSMVTVPSSRWPSETFTCNVAHPASKTKVDKPVPKRENGRVPRPPDCPKCPAPEMLGGPSVFIFPPKPKDTLLIARTPEVTCVVVDLDPEDPEVQISWFVDGKQMQTAKTQPREEQFNGTYRVVSVLPIGHQDWLKGKQFTCKVNNKALPSPIERTISKARGQAHQPSVYVLPPSREELSKNTVSLTCLIKDFFPPDIDVEWQSNGQQEPESKYRTTPPQLDEDGSYFLYSKLSVDKSRWQRGDTFICAVMHEALHNHYTQESLSHSPGK
light: DVLMTQTPLSLPVSLGDQASISCRSSQSIVHSNGNTYLEWYLQKPGQSPKLLIYKVSNRFSGVPDRFSGSGSGTDFTLKISRVEAGDLGVYYCFQGLHVPLTFGAGTRLELKRNDAQPAVYLFQPSPDQLHTGSASVVCLLNSFYPKDINVKWKVDGVIQDTGIQESVTEQDKDSTYSLSSTLTMSSTEYLSHELYSCEITHKSLPSTLIKSFQRSECQRVD
notes: also called chiRA2-B; chimeric RA2
binds: [5] | [6] | [7] | [8]

B7: caninised RF2, HCB isotype (antibody)
heavy: EVQLVQSGGGLVKPTESLTISCVISGFSLTSYGVHWVRQSPGKGLEWLGVIWSGGSIDYNAAFISRLSISKDNSKSTVFIRMNSLRADDTAIYYCARGPRKFYYFGMDYWGQGTSVTVSSASTTAPSVFPLAPSCGSTSGSTVALACLVSGYFPEPVTVSWNSGSLTSGVHTFPSVLQSSGLYSLSSMVTVPSSRWPSETFTCNVAHPASKTKVDKPVPKRENGRVPRPPDCPKCPAPEMLGGPSVFIFPPKPKDTLLIARTPEVTCVVVDLDPEDPEVQISWFVDGKQMQTAKTQPREEQFNGTYRVVSVLPIGHQDWLKGKQFTCKVNNKALPSPIERTISKARGQAHQPSVYVLPPSREELSKNTVSLTCLIKDFFPPDIDVEWQSNGQQEPESKYRTTPPQLDEDGSYFLYSKLSVDKSRWQRGDTFICAVMHEALHNHYTQESLSHSPGK
light: DIVMTQTPLSLSVSQEEEASISCRSSQNIVHSNGNTYVEWYLQKPGQSPKLLIYKVSNRFSGVPDRFSGSGSGTDFTLKISRVEAEDAGVYYCFQGSHVPLTFGAGTKLELKRNDAQPAVYLFQPSPDQLHTGSASVVCLLNSFYPKDINVKWKVDGVIQDTGIQESVTEQDKDSTYSLSSTLTMSSTEYLSHELYSCEITHKSLPSTLIKSFQRSECQRVD
notes: also called caRF2-B
binds: [5] | [9] | [10] | [11]
